Source: PMC9482650, “Quantitative fragmentomics allow affinity mapping of interactomes” (Nature Communications, 2022)

What was measured:
Experiment in all cases: holdup assay
Set-up in all cases: key: below the threshold = too weak to quantify, mostly under pKd 3.1 to 4
Settings in all cases: plain residues with an end cap or a label only (N-terminal biotin on a linker: ado-ado)
Inadl_10, Q8NI35 = biological target: Inadl_10, Q8NI35
APBA2_2, Q99767 = biological target: T1, APBA2_2, Q99767
T1 sequence (Q99767 654-744, limits assumed, looked up): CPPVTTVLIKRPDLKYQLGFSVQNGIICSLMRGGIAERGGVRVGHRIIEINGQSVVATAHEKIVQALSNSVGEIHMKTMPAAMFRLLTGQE

LIN7A, O14910 = biological target: T2, LIN7A, O14910
T2 sequence (O14910 103-200, limits assumed, looked up): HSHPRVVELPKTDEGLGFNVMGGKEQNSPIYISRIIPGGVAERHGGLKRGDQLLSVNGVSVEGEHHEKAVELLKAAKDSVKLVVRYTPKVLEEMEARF

DLG3_2, Q92796 = biological target: T3, DLG3_2, Q92796
T3 sequence (Q92796 221-321, limits assumed, looked up): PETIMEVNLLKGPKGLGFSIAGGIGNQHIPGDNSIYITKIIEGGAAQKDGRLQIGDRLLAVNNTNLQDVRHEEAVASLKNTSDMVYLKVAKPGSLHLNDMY

LIN7C, Q9NUP9 = biological target: T4, LIN7C, Q9NUP9
T4 sequence (Q9NUP9 88-185, limits assumed, looked up): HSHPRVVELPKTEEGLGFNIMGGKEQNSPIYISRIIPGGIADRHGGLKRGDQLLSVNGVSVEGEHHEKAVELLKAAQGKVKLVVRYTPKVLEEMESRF

DLG3_1, Q92796 = biological target: T5, DLG3_1, Q92796
T5 sequence (Q92796 125-227, limits assumed, looked up): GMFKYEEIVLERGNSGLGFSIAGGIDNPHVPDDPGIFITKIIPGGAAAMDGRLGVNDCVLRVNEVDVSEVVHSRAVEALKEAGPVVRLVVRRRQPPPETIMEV

APBA1_1, Q02410 = biological target: T6, APBA1_1, Q02410
T6 sequence (Q02410 651-752, limits assumed, looked up): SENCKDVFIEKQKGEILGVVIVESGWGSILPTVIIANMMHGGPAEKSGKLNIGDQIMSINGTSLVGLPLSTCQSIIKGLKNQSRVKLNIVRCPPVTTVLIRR

APBA2_1, Q99767 = biological target: T7, APBA2_1, Q99767
T7 sequence (Q99767 563-664, limits assumed, looked up): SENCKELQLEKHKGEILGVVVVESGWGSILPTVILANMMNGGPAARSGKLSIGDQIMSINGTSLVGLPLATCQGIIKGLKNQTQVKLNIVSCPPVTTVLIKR

MAGI2_6, Q86UL8 = biological target: MAGI2_6, Q86UL8
FRMPD3, Q5JV73 = biological target: FRMPD3, Q5JV73
SNTG2, Q9NY99 = biological target: T8, SNTG2, Q9NY99
T8 sequence (Q9NY99 68-166, limits assumed, looked up): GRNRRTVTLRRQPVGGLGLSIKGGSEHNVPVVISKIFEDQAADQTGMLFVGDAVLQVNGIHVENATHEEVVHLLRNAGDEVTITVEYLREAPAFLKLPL

TX1BP3, O14907 = biological target: T9, TX1BP3, O14907
T9 sequence (O14907 10-122, limits assumed, looked up): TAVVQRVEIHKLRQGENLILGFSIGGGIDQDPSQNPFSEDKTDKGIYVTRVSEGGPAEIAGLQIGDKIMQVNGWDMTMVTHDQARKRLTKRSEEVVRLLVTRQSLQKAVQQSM

GRIP2_7, Q9C0E4 = biological target: GRIP2_7, Q9C0E4
MAGI3_2, Q5TCQ9 = biological target: MAGI3_2, Q5TCQ9
DLG1_3, Q12959 = biological target: DLG1_3, Q12959
PARD3B_1, Q8TEW8 = biological target: T10, PARD3B_1, Q8TEW8
T10 sequence (Q8TEW8 196-299, limits assumed, looked up): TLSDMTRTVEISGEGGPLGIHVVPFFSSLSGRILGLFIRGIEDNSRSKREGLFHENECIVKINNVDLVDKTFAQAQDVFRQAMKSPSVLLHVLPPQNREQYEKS

LNX1_1, Q8TBB1 = biological target: LNX1_1, Q8TBB1
PCLO, Q9Y6V0 = biological target: T11, PCLO, Q9Y6V0
T11 sequence (Q9Y6V0 4491-4600, limits assumed, looked up): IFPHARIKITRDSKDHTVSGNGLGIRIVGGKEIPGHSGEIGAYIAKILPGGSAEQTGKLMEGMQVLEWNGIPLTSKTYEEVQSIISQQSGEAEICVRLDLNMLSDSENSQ

LIMK2, P53671 = biological target: LIMK2, P53671
GRASP, Q7Z6J2 = biological target: GRASP, Q7Z6J2
RAPGEF6, Q8TEU7 = biological target: T12, RAPGEF6, Q8TEU7
T12 sequence (Q8TEU7 525-625, limits assumed, looked up): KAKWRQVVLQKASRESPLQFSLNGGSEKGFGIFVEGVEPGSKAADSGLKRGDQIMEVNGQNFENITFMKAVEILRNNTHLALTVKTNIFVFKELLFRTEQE

ARHGEF12, Q9NZN5-2 = biological target: ARHGEF12, Q9NZN5-2
Inadl_9, Q8NI35 = biological target: Inadl_9, Q8NI35
LNX1_2, Q8TBB1 = biological target: LNX1_2, Q8TBB1
HTRA2, O43464 = biological target: HTRA2, O43464
Sequence of HTRA2, O43464 (O43464 355-458): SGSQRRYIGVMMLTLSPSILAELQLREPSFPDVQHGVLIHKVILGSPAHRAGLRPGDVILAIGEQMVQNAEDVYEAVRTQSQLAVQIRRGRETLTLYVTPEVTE

Sequence of FRMPD3, Q5JV73 (Q5JV73 12-100): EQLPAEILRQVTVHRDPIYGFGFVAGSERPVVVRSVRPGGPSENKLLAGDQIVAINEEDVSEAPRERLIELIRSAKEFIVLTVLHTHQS
Sequence of Inadl_10, Q8NI35 (Q8NI35 1673-1763): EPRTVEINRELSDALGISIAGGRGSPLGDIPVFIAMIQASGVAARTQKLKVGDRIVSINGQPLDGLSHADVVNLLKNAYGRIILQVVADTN
Sequence of ARHGEF12, Q9NZN5-2 (Q9NZN5 other isoform, or with tags, fused parts or gaps): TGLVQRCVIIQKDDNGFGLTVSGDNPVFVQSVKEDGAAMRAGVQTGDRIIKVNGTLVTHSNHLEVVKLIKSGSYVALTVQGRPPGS
Sequence of Inadl_9, Q8NI35 (Q8NI35 1530-1615): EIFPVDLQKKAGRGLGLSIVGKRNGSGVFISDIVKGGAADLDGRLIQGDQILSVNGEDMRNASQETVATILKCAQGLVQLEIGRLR
Sequence of LNX1_2, Q8TBB1 (Q8TBB1 371-470): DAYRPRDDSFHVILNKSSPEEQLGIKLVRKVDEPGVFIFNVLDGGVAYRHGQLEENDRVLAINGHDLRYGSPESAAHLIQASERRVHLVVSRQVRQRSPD
Sequence of DLG1_3, Q12959 (Q12959 457-571): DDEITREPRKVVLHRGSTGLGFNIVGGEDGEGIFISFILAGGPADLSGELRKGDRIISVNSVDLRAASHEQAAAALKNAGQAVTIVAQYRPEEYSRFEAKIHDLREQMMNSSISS
Sequence of LIMK2, P53671 (P53671 143-248): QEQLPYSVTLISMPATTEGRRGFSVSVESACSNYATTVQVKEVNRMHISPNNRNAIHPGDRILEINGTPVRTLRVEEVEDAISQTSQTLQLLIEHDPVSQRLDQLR
Sequence of GRIP2_7, Q9C0E4 (Q9C0E4 934-1023): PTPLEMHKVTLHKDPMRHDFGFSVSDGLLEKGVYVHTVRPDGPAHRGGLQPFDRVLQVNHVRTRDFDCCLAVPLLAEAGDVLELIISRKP
Sequence of MAGI2_6, Q86UL8 (Q86UL8 1141-1229): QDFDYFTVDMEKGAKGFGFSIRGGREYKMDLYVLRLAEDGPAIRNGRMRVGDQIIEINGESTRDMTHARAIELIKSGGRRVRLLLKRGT
Sequence of LNX1_1, Q8TBB1 (Q8TBB1 261-371): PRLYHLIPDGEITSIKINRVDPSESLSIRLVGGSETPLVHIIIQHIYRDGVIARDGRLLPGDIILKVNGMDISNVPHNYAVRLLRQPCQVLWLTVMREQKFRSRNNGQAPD
Sequence of GRASP, Q7Z6J2 (Q7Z6J2 96-193): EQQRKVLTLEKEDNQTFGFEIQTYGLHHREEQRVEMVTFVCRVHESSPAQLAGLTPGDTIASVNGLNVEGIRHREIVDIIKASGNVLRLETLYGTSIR
Sequence of MAGI3_2, Q5TCQ9 (Q5TCQ9 398-503): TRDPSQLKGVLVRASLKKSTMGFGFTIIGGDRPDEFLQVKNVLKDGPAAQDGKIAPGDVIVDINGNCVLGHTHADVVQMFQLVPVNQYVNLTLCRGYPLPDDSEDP

| Binder | pKd (Inadl_10, Q8NI35) | pKd (APBA2_2, Q99767) | pKd (LIN7A, O14910) | pKd (DLG3_2, Q92796) | pKd (LIN7C, Q9NUP9) | pKd (DLG3_1, Q92796) | pKd (APBA1_1, Q02410) | pKd (APBA2_1, Q99767) | pKd (MAGI2_6, Q86UL8) | pKd (FRMPD3, Q5JV73) | pKd (SNTG2, Q9NY99) | pKd (TX1BP3, O14907) | pKd (GRIP2_7, Q9C0E4) | pKd (MAGI3_2, Q5TCQ9) | pKd (DLG1_3, Q12959) | pKd (PARD3B_1, Q8TEW8) | pKd (LNX1_1, Q8TBB1) | pKd (PCLO, Q9Y6V0) | pKd (LIMK2, P53671) | pKd (GRASP, Q7Z6J2) | also measured |
| --- | --- | --- | --- | --- | --- | --- | --- | --- | --- | --- | --- | --- | --- | --- | --- | --- | --- | --- | --- | --- | --- |
| RGKNRRQSIF [CDK18, Q07002] | below the threshold | 3.5 | below the threshold | 4.19 | 3.5 | below the threshold | below the threshold | below the threshold | below the threshold | below the threshold | below the threshold | below the threshold | below the threshold | below the threshold | 3.71 | 3.89 | 3.95 | below the threshold | below the threshold | 3.81 | pKd (RAPGEF6, Q8TEU7): 3.67; pKd (ARHGEF12, Q9NZN5-2): below the threshold; pKd (Inadl_9, Q8NI35): below the threshold; pKd (LNX1_2, Q8TBB1): below the threshold; pKd (HTRA2, O43464): below the threshold |
| NKSEPFLTWL [WWTR1, Q9GZV5] | 4.63 | below the threshold | below the threshold | below the threshold | 3.58 | below the threshold | 4.11 | below the threshold | 4.9 | 4.26 | below the threshold | 4.49 | 4.21 | 3.89 | below the threshold | 4.57 | 4.13 | below the threshold | below the threshold | 5.28 | pKd (RAPGEF6, Q8TEU7): below the threshold; pKd (ARHGEF12, Q9NZN5-2): 4.95; pKd (Inadl_9, Q8NI35): 4.23; pKd (LNX1_2, Q8TBB1): below the threshold; pKd (HTRA2, O43464): 4.51 |
| VISSDDLTEL [CAPN6, Q9Y6Q1] | below the threshold | below the threshold | below the threshold | 3.99 | below the threshold | below the threshold | below the threshold | below the threshold | 3.59 | 3.63 | below the threshold | below the threshold | below the threshold | below the threshold | below the threshold | below the threshold | below the threshold | below the threshold | below the threshold | 4.21 | pKd (RAPGEF6, Q8TEU7): below the threshold; pKd (ARHGEF12, Q9NZN5-2): 4.91; pKd (Inadl_9, Q8NI35): below the threshold; pKd (LNX1_2, Q8TBB1): below the threshold; pKd (HTRA2, O43464): below the threshold |
| TFSRRPKTRV [CD226, Q15762] | below the threshold | below the threshold | below the threshold | below the threshold | below the threshold | below the threshold | below the threshold | 3.55 | below the threshold | below the threshold | 3.55 | below the threshold | below the threshold | 5.24 | below the threshold | below the threshold | 3.9 | below the threshold | below the threshold | 3.98 | pKd (RAPGEF6, Q8TEU7): below the threshold; pKd (ARHGEF12, Q9NZN5-2): 3.93; pKd (Inadl_9, Q8NI35): below the threshold; pKd (LNX1_2, Q8TBB1): below the threshold; pKd (HTRA2, O43464): below the threshold |
| THHRKIHTRV [ZNF599, Q96NL3] | below the threshold | 3.49 | below the threshold | 5.26 | below the threshold | 4.48 | below the threshold | below the threshold | below the threshold | below the threshold | 4.13 | 3.74 | 3.66 | 5.32 | 4.15 | below the threshold | 4.06 | below the threshold | below the threshold | 3.76 | pKd (RAPGEF6, Q8TEU7): below the threshold; pKd (ARHGEF12, Q9NZN5-2): 4.3; pKd (Inadl_9, Q8NI35): 3.58; pKd (LNX1_2, Q8TBB1): 3.5; pKd (HTRA2, O43464): below the threshold |
| AKADAQESRL [PLCB2, Q00722] | below the threshold | below the threshold | 3.65 | below the threshold | 4.28 | below the threshold | below the threshold | below the threshold | below the threshold | below the threshold | 4.81 | 3.96 | below the threshold | below the threshold | below the threshold | 4.47 | 3.58 | below the threshold | below the threshold | below the threshold | pKd (RAPGEF6, Q8TEU7): below the threshold; pKd (ARHGEF12, Q9NZN5-2): 3.93; pKd (Inadl_9, Q8NI35): below the threshold; pKd (LNX1_2, Q8TBB1): below the threshold; pKd (HTRA2, O43464): below the threshold |
